Among the data in patent US20200048333A1 (THOMAS JEFFERSON UNIVERSITY, published 2020) are binding result and Kd values, retold here.

One test concerns the target T1, GDFYRA (also: biotinylated (position not given here)).
T1 construct: also called biotinylated α2Ct peptide GDFYRA
T1 peptide: GDFYRA
The experiment in a line: blot: antibody variant immobilized on nitrocellulose, biotinylated peptide bound, chemiluminescence.

For the next test, the target named is T2, GYDGDF (also: biotinylated (position not given here)).
T2 construct: also called biotinylated α2Ct peptide GYDGDF
T2 peptide: GYDGDF
The description is as above.

Test [1] deals with T3, synthetic full-length α2(I) C-telopeptide of human collagen I (α2Ct) (human).
T3 construct: also called synthetic α2Ct; full-length α2Ct
T3 peptide: GGGYDFGYDGDFYRA
Briefly: biosensor; table of α2Ct fragments binding to AFA. Here is the method:
(§1) Kinetics of the binding of the AFA to defined α2Ct epitopes. Employing a biosensor, we also analyzed the kinetics of the binding of the AFA with defined epitopes of the human α2Ct. For these assays we employed the AFA, control human IgG, and a set of overlapping peptides spanning the α2Ct (Table 3). In brief, the AFA and control human IgG were covalently immobilized on separate channels of a sensor chip. Subsequently, the binding of the α2Ct fragments to the immobilized antibodies was analyzed. Finally, the dissociation equilibrium constant (KD) values for each α2Ct fragment were calculated (Table 1).

In another test the target is T4, α2Ct fragment DGDFY (human).
T4 construct: One of the overlapping peptides spanning the human α2Ct; also called A2_DGDFY
T4 peptide: DGDFY
Briefly: biosensor; AFA immobilized, peptide in solution. The protocol:
as §1

The target in another test is T5, α2Ct fragment DFYRA (human).
T5 construct: One of the overlapping peptides spanning the human α2Ct
T5 peptide: DFYRA
The experiment in a line: biosensor; AFA immobilized, peptide in solution. The protocol:
as §1

A further test has as its target T6, α2Ct fragment GYDGD (human).
T6 construct: One of the overlapping peptides spanning the human α2Ct
T6 peptide: GYDGD
Briefly: biosensor; AFA immobilized, peptide in solution. The protocol: as §1

Another test concerns the target T7, α2Ct fragment GYDFG (human).
T7 construct: One of the overlapping peptides spanning the human α2Ct
T7 peptide: GYDFG
Briefly: biosensor; AFA immobilized, peptide in solution. Here is the method: as §1

In another test the target is T8, α2Ct fragment DFGYD (human).
T8 construct: One of the overlapping peptides spanning the human α2Ct
T8 peptide: DFGYD
The experiment in a line: biosensor; AFA immobilized, peptide in solution. Here is the method: as §1

Test [2] addresses T9, human procollagen I isolated from human dermal fibroblasts (human, UniProt P02452 23-1464; P08123 23-1366).
T9 construct: Native triple-helical heterotrimer; also called native α2Ct present in procollagen I
Briefly: biosensor; procollagen I immobilized, antibody in solution. Here is the method: (§2) In brief, human procollagen I isolated from human dermal fibroblasts and synthetic α2Ct were immobilized on separate channels of a biosensor. Subsequently, the full-length AFA or its Fab fragments, generated by digestion with papain, were added at various concentrations to a sensor to record the association and the dissociation phases. Data from the AFA binding interactions and the Fab binding interactions were then used to calculate the KD values. In a separate set of experiments, the binding interactions of the scFv variant consisting of the VL and VH domains connected via a peptide linker were also tested using a biosensor. In these assays, the scFv-procollagen I binding interactions were studied.

The target of test [3] is T3, synthetic full-length α2(I) …. Briefly: biosensor; synthetic α2Ct immobilized, antibody in solution. The protocol: as §2
The target of test [4] is T9, human procollagen I isolated from human …. The experiment in a line: biosensor; scFv-procollagen I. The protocol:
as §2

Test [5] shares this target. The experiment in a line: biosensor; procollagen I immobilized, Fab in solution. The protocol:
as §2

For test [6], the target named is T3, synthetic full-length α2(I) …. The experiment in a line: biosensor; synthetic α2Ct immobilized, Fab in solution. The protocol:
as §2

No end group written: not given here.

T9 sequence (P02452 23-1464, chain 1 of 2): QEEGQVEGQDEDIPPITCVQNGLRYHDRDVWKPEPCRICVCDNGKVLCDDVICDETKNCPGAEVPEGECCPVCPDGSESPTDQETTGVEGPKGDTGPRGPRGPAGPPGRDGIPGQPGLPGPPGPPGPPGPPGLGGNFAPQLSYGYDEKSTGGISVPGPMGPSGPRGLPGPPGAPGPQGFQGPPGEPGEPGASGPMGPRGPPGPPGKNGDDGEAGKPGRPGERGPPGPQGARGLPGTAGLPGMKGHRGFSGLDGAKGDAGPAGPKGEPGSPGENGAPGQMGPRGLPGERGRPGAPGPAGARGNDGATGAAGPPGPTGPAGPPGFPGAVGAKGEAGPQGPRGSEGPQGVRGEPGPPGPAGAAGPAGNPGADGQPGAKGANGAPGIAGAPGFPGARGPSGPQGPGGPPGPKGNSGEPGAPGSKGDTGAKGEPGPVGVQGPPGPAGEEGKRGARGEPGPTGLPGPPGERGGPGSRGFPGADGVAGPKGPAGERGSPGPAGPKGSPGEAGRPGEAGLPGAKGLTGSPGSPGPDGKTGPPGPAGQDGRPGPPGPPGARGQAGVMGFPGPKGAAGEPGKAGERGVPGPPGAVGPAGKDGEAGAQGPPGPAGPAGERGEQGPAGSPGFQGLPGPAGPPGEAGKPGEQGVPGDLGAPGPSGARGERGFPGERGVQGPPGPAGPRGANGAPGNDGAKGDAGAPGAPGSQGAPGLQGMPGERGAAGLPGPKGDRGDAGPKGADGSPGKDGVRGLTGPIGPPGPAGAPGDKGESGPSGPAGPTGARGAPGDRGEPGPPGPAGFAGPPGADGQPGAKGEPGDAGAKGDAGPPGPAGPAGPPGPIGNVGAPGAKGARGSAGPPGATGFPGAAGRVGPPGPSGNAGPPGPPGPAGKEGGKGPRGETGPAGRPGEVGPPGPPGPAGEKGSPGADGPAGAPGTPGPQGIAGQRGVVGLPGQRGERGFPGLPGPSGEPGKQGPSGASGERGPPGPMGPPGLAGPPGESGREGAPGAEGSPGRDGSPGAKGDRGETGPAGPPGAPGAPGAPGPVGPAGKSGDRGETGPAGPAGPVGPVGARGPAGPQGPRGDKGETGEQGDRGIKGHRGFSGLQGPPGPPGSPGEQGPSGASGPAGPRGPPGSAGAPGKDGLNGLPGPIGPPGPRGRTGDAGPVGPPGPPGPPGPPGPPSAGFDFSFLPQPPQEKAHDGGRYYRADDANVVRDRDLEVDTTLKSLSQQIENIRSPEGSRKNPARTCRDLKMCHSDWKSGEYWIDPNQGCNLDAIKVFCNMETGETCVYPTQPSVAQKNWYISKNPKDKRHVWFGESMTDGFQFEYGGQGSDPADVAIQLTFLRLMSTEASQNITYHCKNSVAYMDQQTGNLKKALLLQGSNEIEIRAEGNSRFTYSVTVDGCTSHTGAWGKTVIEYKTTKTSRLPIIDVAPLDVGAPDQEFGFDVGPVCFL
T9 sequence (P08123 23-1366, chain 2 of 2): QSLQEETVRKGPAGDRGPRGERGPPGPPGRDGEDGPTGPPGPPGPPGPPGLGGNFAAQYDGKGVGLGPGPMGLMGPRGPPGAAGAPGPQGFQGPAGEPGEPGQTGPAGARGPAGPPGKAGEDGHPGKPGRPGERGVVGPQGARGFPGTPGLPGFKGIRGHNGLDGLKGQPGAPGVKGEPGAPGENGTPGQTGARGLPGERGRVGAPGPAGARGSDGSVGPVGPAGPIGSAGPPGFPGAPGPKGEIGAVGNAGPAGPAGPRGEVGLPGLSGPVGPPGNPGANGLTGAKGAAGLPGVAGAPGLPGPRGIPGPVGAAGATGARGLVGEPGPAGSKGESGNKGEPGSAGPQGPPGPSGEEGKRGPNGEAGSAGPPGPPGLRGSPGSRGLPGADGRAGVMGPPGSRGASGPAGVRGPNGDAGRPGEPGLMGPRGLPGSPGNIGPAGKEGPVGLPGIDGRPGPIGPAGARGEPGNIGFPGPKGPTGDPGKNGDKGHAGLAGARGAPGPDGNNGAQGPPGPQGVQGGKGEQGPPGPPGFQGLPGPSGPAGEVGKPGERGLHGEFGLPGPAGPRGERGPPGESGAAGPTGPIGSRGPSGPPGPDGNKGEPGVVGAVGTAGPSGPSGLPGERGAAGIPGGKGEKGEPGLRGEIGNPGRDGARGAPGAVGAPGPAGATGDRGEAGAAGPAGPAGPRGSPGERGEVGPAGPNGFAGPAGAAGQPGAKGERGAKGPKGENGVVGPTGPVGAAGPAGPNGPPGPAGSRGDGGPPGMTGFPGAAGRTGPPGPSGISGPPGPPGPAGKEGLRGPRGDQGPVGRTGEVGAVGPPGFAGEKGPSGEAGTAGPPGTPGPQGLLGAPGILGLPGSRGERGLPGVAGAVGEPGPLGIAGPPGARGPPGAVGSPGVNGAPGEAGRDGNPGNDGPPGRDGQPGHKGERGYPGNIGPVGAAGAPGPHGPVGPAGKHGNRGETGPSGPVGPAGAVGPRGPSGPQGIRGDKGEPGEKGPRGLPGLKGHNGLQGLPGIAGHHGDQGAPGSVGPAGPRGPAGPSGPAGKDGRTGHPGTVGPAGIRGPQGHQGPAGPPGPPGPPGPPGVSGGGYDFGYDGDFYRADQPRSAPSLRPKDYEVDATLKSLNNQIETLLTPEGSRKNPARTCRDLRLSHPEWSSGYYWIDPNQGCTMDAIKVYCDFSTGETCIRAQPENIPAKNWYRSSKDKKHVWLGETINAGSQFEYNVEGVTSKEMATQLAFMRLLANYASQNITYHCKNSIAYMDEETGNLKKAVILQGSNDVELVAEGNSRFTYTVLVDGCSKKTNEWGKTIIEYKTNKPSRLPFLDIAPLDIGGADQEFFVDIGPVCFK

B1: chimeric human IgG-type AFA (antibody, V domains shown)
VH: AQIQLVQSGPELKKPGETVKISCKASGYTFTDYPLHWVKQAPGKGLQWMAWINTETGEPTYADDFTGRFAFSLETSASTAYLQINNLKNEDTATYFCVRGYYYYWGQGTTLSVSS
VL: DIVMSQSPSSLAVSAGEKVTMSCKSSQSLLNSRTRKNNLAWYQQKPGQSPKLLIYWASTRESGVPDRFTGSGSGTDFTLTISSVQAEDLAVYYCKQSYNLWTFGGGTKLEIKR
notes: also called chIgG; chlgG
Consider B1, for which the binding result with GDFYRA and with GYDGDF was “binds” throughout.

B2: full-length anti-fibrotic antibody (AFA), monoclonal anti-collagen I antibody against the α2(I) C-telopeptide (antibody, V domains shown)
VH: AQIQLVQSGPELKKPGETVKISCKASGYTFTDYPLHWVKQAPGKGLQWMAWINTETGEPTYADDFTGRFAFSLETSASTAYLQINNLKNEDTATYFCVRGYYYYWGQGTTLSVSS
VL: DIVMSQSPSSLAVSAGEKVTMSCKSSQSLLNSRTRKNNLAWYQQKPGQSPKLLIYWASTRESGVPDRFTGSGSGTDFTLTISSVQAEDLAVYYCKQSYNLWTFGGGTKLEIKR
notes: The control was human IgG; also called full-length AFA; Full-length AFA antibody
Turning to B2, the Kd – broadly, the equilibrium constant for the complex coming apart – in test [1] amounted to 0.021 nM; with α2Ct fragment DGDFY, 22.2 µM; with α2Ct fragment DFYRA, 449 µM; with α2Ct fragment GYDGD, 604 µM; with α2Ct fragment GYDFG, 259 µM; with α2Ct fragment DFGYD, 6400 µM. For the same molecule, the Kd in [2] worked out at 0.000663 µM; in test [3] it was 0.021 nM.

B3: scFv variant of the AFA consisting of the VL and VH domains connected via a peptide linker (scFv, V domains shown, not shown: small tags and cut ends)
VL: DIVMSQSPSSLAVSAGEKVTMSCKSSQSLLNSRTRKNNLAWYQQKPGQSPKLLIYWASTRESGVPDRFTGSGSGTDFTLTISSVQAEDLAVYYCKQSYNLWTFGGGTKLEIKR
V domain: AQIQLVQSGPELKKPGETVKISCKASGYTFTDYPLHWVKQAPGKGLQWMAWINTETGEPTYADDFTGRFAFSLETSASTAYLQINNLKNEDTATYFCVRGYYYYWGQGTTLSVSS
notes: The domain order VL-linker-VH follows the wording 'VL and VH domains connected via a peptide linker'; also called single chain antibody
In the case of B3, in test [4], the Kd is 0.075 µM.

B4: Fab fragment of the AFA (Fab, V domains shown)
VH: AQIQLVQSGPELKKPGETVKISCKASGYTFTDYPLHWVKQAPGKGLQWMAWINTETGEPTYADDFTGRFAFSLETSASTAYLQINNLKNEDTATYFCVRGYYYYWGQGTTLSVSS
VL: DIVMSQSPSSLAVSAGEKVTMSCKSSQSLLNSRTRKNNLAWYQQKPGQSPKLLIYWASTRESGVPDRFTGSGSGTDFTLTISSVQAEDLAVYYCKQSYNLWTFGGGTKLEIKR
notes: also called Fab AFA antibody; Fab fragments of the AFA
B4: the Kd amounted to 0.268 µM in test [5] and 0.057 µM in test [6].

B5: original mouse IgA-type AFA (antibody, V domains shown)
VH: AQIQLVQSGPELKKPGETVKISCKASGYTFTDYPLHWVKQAPGKGLQWMAWINTETGEPTYADDFTGRFAFSLETSASTAYLQINNLKNEDTATYFCVRGYYYYWGQGTTLSVSS
VL: DIVMSQSPSSLAVSAGEKVTMSCKSSQSLLNSRTRKNNLAWYQQKPGQSPKLLIYWASTRESGVPDRFTGSGSGTDFTLTISSVQAEDLAVYYCKQSYNLWTFGGGTKLEIKR
notes: Mouse IgA from a hybridoma, with heavy α chain and light κ chain; also called native mouse IgA-type AFA; original IgA-type anti-α2Ct antibody
On to B5, for which the binding result with GDFYRA and with GYDGDF was “binds” in each case.
